Source: paper PMC12159149

Target: geCHO.sE2.7 (secreted HCV E2 ectodomain produced in glycoengineered CHO line 7) (hepatitis C virus, genotype 1a (H77C))
Experiment: ELISA

**Q.** With “CD81 large extracellular loop (LEL)-Fc fusion” as the substance, how does the OD at 450 nm at the highest concentration of CD81-LEL-Fc (2.8 μM) read?
**A.** The OD at 450 nm at the highest concentration of CD81-LEL-Fc (2.8 μM) was 0.4 OD.
